Drawing on patent publication US20240327505A1, this text covers Pseudovirus Neturalization for 8 substances.

Common to all, as to assay: cell-based or functional assay
Assay [1] concerns the target SARS-CoV-2 "Gamma" Brazil P.1.B.1.1.28 full-length Spike protein on pseudovirus (SARS-CoV-2) (UniProt P0DTC2).
The target of assay [2] is SARS-CoV-2 "Beta" SA B.1.351 full-length Spike protein on pseudovirus (SARS-CoV-2) (UniProt P0DTC2).
For assay [3], the target named is SARS-CoV-2 "Alpha" UK B.1.1.7 full-length Spike protein on pseudovirus (SARS-CoV-2) (UniProt P0DTC2).
Assay [4] has as its target SARS-CoV-2 "Delta" B.1.617.2 full-length Spike protein on pseudovirus (SARS-CoV-2) (UniProt P0DTC2).
Assay [5] addresses SARS-CoV-2 "Epsilon" B.1.427/9 full-length Spike protein on pseudovirus (SARS-CoV-2) (UniProt P0DTC2).
In assay [6] the target is SARS-CoV-2 "Delta-plus" B.1.617.2.1 full-length Spike protein on pseudovirus (SARS-CoV-2) (UniProt P0DTC2).

For the substance CA-1 (AB-009265) (antibody), the Pseudovirus Neturalization is more than 50 µg/mL in assay [1]; more than 50 µg/mL in assay [2]; 0.209 µg/mL in assay [3]; 2.19 µg/mL in assay [4]; 0.33 µg/mL in assay [5]; 41.5 µg/mL in assay [6].
Regarding CB-6 (AB-009264) (antibody), the Pseudovirus Neturalization is more than 50 µg/mL in assay [1]; more than 50 µg/mL in assay [2]; 0.417 µg/mL in assay [3]; 0.004 µg/mL in assay [4]; 0.009 µg/mL in assay [5]; more than 50 µg/mL in assay [6].
“REGN10987 | Imdevimab (AB-010157) (antibody)”: the Pseudovirus Neturalization in assay [4], in assay [5] and in assay [6] was 0.001 µg/mL each time.
As to “Anti-Nucleocapsid (Neg Control) (antibody)”, the Pseudovirus Neturalization in assay [1], in assay [2], in assay [3], in assay [4], in assay [5] and in assay [6] was more than 50 µg/mL in each case.
Regarding “REGN10933 | Casirivimab (AB-010156) (antibody)”, the Pseudovirus Neturalization is 0.666 µg/mL in assay [1]; 1.09 µg/mL in assay [2]; 0.001 µg/mL in assay [4]; 0.001 µg/mL in assay [5]; 0.001 µg/mL in assay [6].
Consider CR3022 (AB-009073) (antibody), for which the Pseudovirus Neturalization in assay [1], in assay [2], in assay [3], in assay [4], in assay [5] and in assay [6] was more than 50 µg/mL in each case.
As for COVA1-21 (AB-010159) (antibody), the Pseudovirus Neturalization in assay [1], in assay [2], in assay [3], in assay [4], in assay [5] and in assay [6] was more than 50 µg/mL in each case.
Regarding “LY-CoV555 | Bamlanivimab (AB-010160) (antibody)”, the Pseudovirus Neturalization in assay [1] was more than 50 µg/mL; in assay [2], more than 50 µg/mL; in assay [3], 0.0012 µg/mL; in assay [4] it was 19.3 µg/mL; in assay [5] it was 7.82 µg/mL; in assay [6], 6.93 µg/mL.
